According to patent US20230193225A1, “NEW USES OF A MUTATED LACTONASE, AND COMPOSITIONS” (FONDATION MEDITERRANEE INFECTION, priority 2019, published 2023):
Changes are numbered by the printed parent chain. Names and notes keep the numbering of the source. “Also recorded” adds a separate entry of the source.

Columns and labels:
[1] = system: Pseudomonas aeruginosa UCBPP-PA14 biofilm; test: MBEC (Minimal Biofilm Eradication Concentration) assay; type: cell-based; settings: control sample with inactive variant SsoPox-5A8
[2] = system: Pseudomonas aeruginosa UCBPP-PA14 biofilm; test: as above; type: cell-based; settings: for MBEC: P. aeruginosa UCBPP-PA14 biofilm; for factor of decrease of the concentration required to eliminate the biofilms in presence of SsoPox-W263I: P. aeruginosa biofilms, with vs without SsoPox-W263I
Experimental: (§1) The doses of antimicrobial agents required to eliminate bacterial biofilms are determined using the “MBEC (Minimal Biofilm Eradication Concentration) Assay TM” technique developed by Innovotech (Alberta, Canada) according to the supplier's data.
(§2) Bacterial biofilms are formed by bacterial growth in a medium and conditions adapted to the bacteria studied in the presence or absence of the lactonase SsoPox-W263I of sequence SEQ ID NO: 2.
(§3) Bacteria are pre-cultured for 6 hours in oxygenated flasks under the conditions indicated in Table 1 and then MBEC plates are plated by diluting the pre-culture to 1:1000 in the presence or absence of SsoPox-W263I lactonase at 0.5 mg/mL. After 24 hours of growth, the bacterial biofilms formed on the spikes of the MBEC plate cover are rinsed by immersion for 5 minutes in a buffer solution (Table 1). The biofilms are then immersed in a buffer solution containing antimicrobial agents (disinfectants, bactericidal or bacteriostatic antibiotics, bacteriophages, biocides) for a period of time representative of the mechanism of action of the antimicrobial agent studied (1.5 h for antiseptics, 3 h for antibiotics, 4 h for phages). After immersion in the antimicrobial agents, the bacterial biofilms were rinsed for 5 minutes in a buffer solution and then incubated for 1 hour in a nutrient medium adapted to the bacteria studied and containing detergents to detach the biofilms (Table 1). After 1 hour of incubation, the bacteria detached from the biofilm and thus present in the wells of the MBEC plate are serially diluted and plated on suitable nutrient agar to perform bacterial counts and determine the number of bacteria that survived the combined treatment of the mutated SsoPox-W263I enzyme and the antimicrobial agent (FIG. 1). The MBEC is the minimum concentration of antimicrobial agent to eradicate the bacteria in the biofilm.

[3] = system: P. aeruginosa biofilms; test: Enumeration of bacteria recovered from biofilms after antiseptic or bleach treatment; type: cell-based, Pseudomonas aeruginosa; settings: for bacteria recovered from the biofilm: 10 mM H2O2 for 1.5 hours
Experimental: as §2, §3

[4] = system: Chromobacterium violaceum ATCC-12472 biofilm; test: MBEC (Minimal Biofilm Eradication Concentration) assay; type: cell-based; settings: C. violaceum ATCC-12472 biofilm
Experimental: as §1, §2, §3

[5] = system: Pseudomonas aeruginosa PA14; test: Susceptibility to Intesti phage cocktail; type: cell-based; settings: enzyme 0.5 mg/mL, phage cocktail 0 to 50% (vol/vol)
Experimental: FIG. 2: Increased susceptibility of Pseudomonas aeruginosa PA14 to Intesti phage cocktail.
as §3
The Intesti phage cocktail consists of a mixture of sterile filtrates of phages directed against Shigella flexneri (serovariants 1, 2, 3, 4, 6), Shigellasi, Proteus vulgaris, Proteus mirabilis, Enterococcus, Staphylococcus, Pseudomonas aeruginosa and excipients such as 8-hydroxyquinoline sulfate monohydrate at 0.0001 g/ml (estimated content) and is marketed by Intesti-bacteriophage, Microgen, Russia

[6] = system: CRISPR-Cas system genes in Chromobacterium violaceum CV12472; test: Gene expression of the CRISPR-Cas system (RT-PCR); type: cell-based; settings: C. violaceum CV12472; vs inactive SsoPox-5A8
Experimental: (§4) FIG. 3: Expression changes of the CRISPR-Cas system. Expression of the CRISPR-Cas system genes casl, cas3, csy1, csy2, csy3 and csy4 was measured for the P. aeruginosa model strain PA14 as well as for clinical isolates from diabetic foot infections (All, B10, C5, C11, D10 and F3) and for the marine bacterium Chromobacterium violaceum CV12472. […] Error bars represent variations for 2 technical duplicates of 2 biological replicates. *p-values<0.05, *p-values<0.01, ***p-values<0.001 by Student's t-test.
(§5) After 16 hours of culture (stationary phase), the bacteria were recovered by centrifugation.
RNAs were extracted and purified with the PureLink® RNA mini kit (ThermoFisher) according to the supplier's recommendations and then treated with the TURBO DNA-free™ kit (ThermoFisher) to remove genomic DNA contamination. Samples were checked for quality by 1.5% agarose gel migration and the amount of nucleic acid was measured with a NanoDrop 2000 spectrophotometer (Thermo Scientific) at OD260 nm. […] RT-PCR was then performed using the LuminoCt® SYBR® Green qPCR ReadyMix™ kit and a CFX thermocycler (Bio-Rad) and specific primer pairs. […] Sample fluorescence is measured at the end of each cycle and denaturation curves were analysed with CFX Manager™ software (Bio-Rad). […]

[7] = system: CRISPR-Cas system genes cas1, cas3, csy1, csy2, csy3 and csy4 in P. aeruginosa PA14 and clinical isolates; test: Gene expression of the CRISPR-Cas system (RT-PCR); type: cell-based, Pseudomonas aeruginosa; settings: vs inactive SsoPox-5A8
Experimental: as §4, §5
RNAs were extracted and purified with the PureLink® RNA mini kit (ThermoFisher) according to the supplier's recommendations and then treated with the TURBO DNA-free™ kit (ThermoFisher) to remove genomic DNA contamination. Samples were checked for quality by 1.5% agarose gel migration and the amount of nucleic acid was measured with a NanoDrop 2000 spectrophotometer (Thermo Scientific) at OD260 nm. Complementary DNAs (cDNAs) were synthesised using the TaqMan® Reverse Transcription Reagents kit (ThermoFisher) according to the manufacturer's recommendations. RT-PCR was then performed using the LuminoCt® SYBR® Green qPCR ReadyMix™ kit and a CFX thermocycler (Bio-Rad) and specific primer pairs. PCR amplification was performed with the following method: Denaturation for 5 minutes at 94° C., followed by 29 cycles of [1 minute at 94° C., 1 minute at 55° C., 30 seconds at 72° C.] for amplification, then a final elongation step for 7 minutes at 72° C. Sample fluorescence is measured at the end of each cycle and denaturation curves were analysed with CFX Manager™ software (Bio-Rad). Gene expression was normalised by expression of a 5S RNA housekeeping gene.

Molecule: OO [H2O2]
- antiseptic required to completely eradicate the biofilm [1]: 100 mM
- MBEC ([2]; with SsoPox W263I 0.5 mg/mL): 10 mM
- MBEC ([2]; without SsoPox W263I): 100 mM
- factor of decrease of the concentration required to eliminate the biofilms in presence of SsoPox-W263I [2]: 10
- bacteria recovered from the biofilm ([3]; without the lactonase): 104-105 bacterial cells

Molecule: NC[C@H]1O[C@H](O[C@H]2[C@H](O)[C@@H](O[C@H]3O[C@H](CO)[C@@H](O)[C@H](N)[C@H]3O)[C@H](N)C[C@@H]2N)[C@H](N)C[C@@H]1O [Tobramycin]
- MBEC ([2]; with SsoPox W263I 0.5 mg/mL): 1 µg/mL
- MBEC ([2]; without SsoPox W263I): 10 µg/mL
- factor of decrease of the concentration required to eliminate the biofilms in presence of SsoPox-W263I [2]: 10

Molecule: CN(C)S(=O)(=O)N(SC(F)(Cl)Cl)c1ccccc1 [Preventol A4S, Dichlofluanide]
- MBEC ([4]; with SsoPox W263I 0.5 mg/mL): >10 µM
- MBEC ([4]; without SsoPox W263I): <200 µM

Molecule: Gentamicin
- MBEC ([2]; with SsoPox W263I 0.5 mg/mL): 2 µg/mL
- MBEC ([2]; without SsoPox W263I): 20 µg/mL
- factor of decrease of the concentration required to eliminate the biofilms in presence of SsoPox-W263I [2]: 10

B1: SsoPox-W263I: mutated hyperthermophilic lactonase of Sulfolobus solfataricus (SsoPox), tryptophan at position 263 substituted by isoleucine, SEQ ID NO: 2 (protein, listed as Sulfolobus solfataricus)
chain: MRIPLVGKDSIESKDIGFTLIHEHLRVFSEAVRQQWPHLYNEDEEFRNAVNEVKRAMQFGVKTIVDPTVMGLGRDIRFMEKVVKATGINLVAGTGIYIYIDLPFYFLNRSIDEIADLFIHDIKEGIQGTLNKAGFVKIAADEPGITKDVEKVIRAAAIANKETKVPIITHSNAHNNTGLEQQRILTEEGVDPGKILIGHLGDTDNIDYIKKIADKGSFIGLDRYGLDLFLPVDKRNETTLRLIKDGYSDKIMISHDYCCTIDIGTAKPEYKPKLAPRWSITLIFEDTIPFLKRNGVNEEVIATIFKENPKKFFS
- sensitivity of bacteria to Intesti phage cocktail (number of bacteria counted) [5]: more sensitive
- sensitivity of bacteria to Intesti phage cocktail (number of bacteria counted) ([5]; listed as W263I mutated lactonase): satisfactory results
- expression of the cas3 and csy2-4 genes [6]: significantly reduced
- expression of CRISPR-Cas genes ([7]; P. aeruginosa PA14): completely abolished
- expression of the csy1-4 genes ([7]; clinical isolate A11): significantly reduced
- factor of decrease of CRISPR-Cas gene expression ([7]; clinical isolate B10): 5.5
- factor of decrease of CRISPR-Cas gene expression ([7]; clinical isolate C11): 8
- expression of the csy1-4 genes ([7]; clinical isolate D10): significantly reduced
- factor of increase of CRISPR-Cas gene expression, on average ([7]; clinical isolate F3): 1.7
- decrease in number of bacteria recovered from biofilms ([3]; 0.7 mM NaOCl and SsoPox-W263I, compared to NaOCl alone): 2 Log
- bacteria recovered from the biofilm ([3]; biofilm formed with SsoPox-W263I): no bacteria are recovered; also recorded: significantly reduces
- number of bacteria recovered from the biofilm, combination vs either agent alone ([3]; sodium hypochlorite in combination with W263I mutated lactonase): significantly reduces
- number of bacteria recovered from biofilms ([3]; without NaOCl treatment, with vs without W263I mutated lactonase): same number of bacteria
- number of bacteria recovered from biofilms ([3]; without antiseptic treatment, with vs without SsoPox-W263I): same number of bacteria

B2: SsoPox-5A8: inactive variant of SsoPox (V27G/P67Q/L72C/Y97S/Y99A/T177D/R223L/L226Q/L228M/W263H) (protein, UniProt Q97VT7 1-314, looked up, variant V27G P67Q L72C Y97S Y99A T177D R223L L226Q L228M W263H)
Aryldialkylphosphatase: B1 chain with V27G, P67Q, L72C, Y97S, Y99A, T177D, R223L, L226Q, L228M, I263H
- sensitivity of bacteria to Intesti phage cocktail (number of bacteria counted) [5]: little impacted
